The values below come from patent US20200283741.

Positions count from the first letter of the chain named. Names may count otherwise.

The chains are these.
T1: HbA1c-type αF8P (α-fructosyl-valyl-histidyl-leucyl-threonyl-prolyl-glutamyl-glutamyl-lysine)
T1 chain: VHLTPEEK

T2: HbC1c-type αF8P
T2 chain: VHLTPKEK

T3: HbS1c-type αF8P
T3 chain: VHLTPVEK

B1: En42FX R108L (protein)
chain: MAPRANTKIIVVGGGGTMGSSTALHLLRAGYTPSNITVLDTYPIPSAQSAGYDLNKIFGISGANKHDLQLSLEAFDMWKNDPLFKPFFHNVGQMDVSSTEEGIKRLRLRYQSLLRAGIGLEKTNFLLESEDEILAKAPHFTREQIKGWKGLFCGDGGWLAAAKAINAIGQFLKEQGVKFGFGEAGTFKKPLFADADEKTCIGVETVDGTKYYADKVVLAAGAWSSTLVDLEEQCVSKAWVFAHIQLTPAEAAAYKNTPVIYDGDYGFFIEPDENGIIKVCDEFPGFTHFKMHQPYGSPVPKLISVPRSHAKHPTDTYPHASEVTIKKAINRFLPRFNDKELFNRAMCWCTDTADSNLLVCEHPRWKGFYLATGDSGHSFKLLPNIGKHVVELLEGRLESVFKDAWRWRPGSGDALKSRRAAPAKDLADMPGWRNEAKM
B2: En42FX R108Q (protein)
chain: B1 chain with L108Q
B3: En42FX S112E (protein)
chain: B1 chain with L108R, S112E
B4: En42FX R105S (protein)
chain: B1 chain with R105S, L108R
B5: En42FX R105L (protein)
chain: B1 chain with R105L, L108R
B6: En42FX R108D (protein)
chain: B1 chain with L108D
B7: En42FX S112D (protein)
chain: B1 chain with L108R, S112D
B8: En42FX R108E (protein)
chain: B1 chain with L108E
B9: En42FX R105D (protein)
chain: B1 chain with R105D, L108R
B10: CFP-T7-H40-3M (protein)
chain: MTSNRADTRVIVVGGGGTIGSSTALHLVRSGYAPANITVLDTFEIPSAQSAGHDLNKIMGIDHGNKVNLQMSLEARQMWKEDELFQPFFHNTGRMDCESTPKGIEKLKKYYQKLHDAGAGLEKTHAWLDNEDEILSKMPLLQRDQIQGWKAIWSQDGGWLAAAKAINAIGQFLKERGVKFGFGGAGSFKQPLFDDEGTTCIGVETADGTKYYADKVVLAAGAWSPTLVDLEDQCCSKAWVYAHIQLTPEEAAEYKGVPVVYNSEYGFFFEPDEFGVIKVCNEFPGFSRFKEHQPYGAPSPKRISVPRSHAKHPTDTYPDASEVSIKKAIATFLPRFQDKELFNRALCWCTDTADSTLLMCEHPKWKNFILATGDSGHSFKILPNVGKYVVELIEGRLPEEMAYQWRWRPGGDALKSRRAAPPKDLADMPGWKHDPKL
B11: CFP-T7-H40-3M K102A (protein)
chain: B10 chain with K102A
B12: CFP-T7-H40-3M K102E (protein)
chain: B10 chain with K102E

In the first data set the target is T1, HbA1c-type αF8P ….
Regarding B1, the relative activity on substrate (reference, designated as 100%) was found to be 100%.
As for B2, the relative activity on substrate (reference, designated as 100%) worked out at 100%.
On the same count and under the same terms, with B3 the figure was 100%; with B4, 100%; with B5, 100%.
Still for that read-out and setting: with B6 the figure was 100%.
Same read-out and setting: the figure for B7 is 100%; for B8 it is 100%; for B9 it is 100%.
The protein B10 showed a relative activity on substrate (reference, designated as 100%) of 100%.
The same measure, in the same setting: the figure for B11 is 100%; for B12 it is 100%.

Another data set addresses T2, HbC1c-type αF8P.
Turning to B1, the relative activity on substrate (activity on HbA1c-type αF8P = 100%) came out at 13%.
For B2, the relative activity on substrate (activity on HbA1c-type αF8P = 100%) came to 15%.
Same read-out and setting: the figure for B3 is 41%; for B4 it is 13%.
Consider B5, for which the “relative activity (HbC1c/HbA1c), fold over En42FX before modification” value was “improved by about 1.1 to 10.8 times” and the relative activity on substrate (activity on HbA1c-type αF8P = 100%) was 9%.
For the protein B6, the relative activity on substrate (activity on HbA1c-type αF8P = 100%) stood at 23%.
Same read-out and setting: with B7 the figure was 16%.
B8: the relative activity on substrate (activity on HbA1c-type αF8P = 100%) stood at 31%.
For B9, the “relative activity (HbC1c/HbA1c), fold over En42FX before modification” value is “improved by about 1.1 to 10.8 times” and the relative activity on substrate (activity on HbA1c-type αF8P = 100%) is 86%.
Regarding B10, the relative activity on substrate (activity on HbA1c-type αF8P = 100%) is 11%.

The next data set deals with T3, HbS1c-type αF8P.
Consider B1, for which the “relative activity (HbS1c/HbA1c), fold over En42FX before modification” value is “improved by about 1.4 to 3.7 times” and the relative activity on substrate (activity on HbA1c-type αF8P = 100%) was 150%.
For B2, the relative activity on substrate (activity on HbA1c-type αF8P = 100%) amounted to 67%.
Consider B3, for which the relative activity on substrate (activity on HbA1c-type αF8P = 100%) is 82%.
Take B4: the “relative activity (HbS1c/HbA1c), fold over En42FX before modification” value is “improved by about 1.4 to 3.7 times” and the relative activity on substrate (activity on HbA1c-type αF8P = 100%) was determined as 56%.
B5: the relative activity on substrate (activity on HbA1c-type αF8P = 100%) turned out to be 64%.
The same measure, in the same setting: with B6 the figure was 95%.
Same read-out and setting: with B7 the figure was 63%.
Same read-out and setting: with B8 the figure was 100%; with B9, 114%; with B10, 39%.
With B11, the “relative activity (HbS1c/HbA1c), fold over H40-3M before modification” value is listed as “about 1.97 times greater than that prior to modification” and the relative activity on substrate (activity on HbA1c-type αF8P = 100%) worked out at 77%.
The matching figures for B12: “about 1.74 times greater than that prior to modification” and 68%.
